{
  "source": "patent US20090233982",
  "key": {"Dnmt1 (Mus musculus)": {"system": "Dnmt1 (Mus musculus)", "conditions": "14C-SAM incorporation; as efficient as Misu"}, "[1]": {"target": "Misu (full length, mouse) (Mus musculus) (UniProt Q1HFZ0)", "sequence (Q1HFZ0 whole entry)": "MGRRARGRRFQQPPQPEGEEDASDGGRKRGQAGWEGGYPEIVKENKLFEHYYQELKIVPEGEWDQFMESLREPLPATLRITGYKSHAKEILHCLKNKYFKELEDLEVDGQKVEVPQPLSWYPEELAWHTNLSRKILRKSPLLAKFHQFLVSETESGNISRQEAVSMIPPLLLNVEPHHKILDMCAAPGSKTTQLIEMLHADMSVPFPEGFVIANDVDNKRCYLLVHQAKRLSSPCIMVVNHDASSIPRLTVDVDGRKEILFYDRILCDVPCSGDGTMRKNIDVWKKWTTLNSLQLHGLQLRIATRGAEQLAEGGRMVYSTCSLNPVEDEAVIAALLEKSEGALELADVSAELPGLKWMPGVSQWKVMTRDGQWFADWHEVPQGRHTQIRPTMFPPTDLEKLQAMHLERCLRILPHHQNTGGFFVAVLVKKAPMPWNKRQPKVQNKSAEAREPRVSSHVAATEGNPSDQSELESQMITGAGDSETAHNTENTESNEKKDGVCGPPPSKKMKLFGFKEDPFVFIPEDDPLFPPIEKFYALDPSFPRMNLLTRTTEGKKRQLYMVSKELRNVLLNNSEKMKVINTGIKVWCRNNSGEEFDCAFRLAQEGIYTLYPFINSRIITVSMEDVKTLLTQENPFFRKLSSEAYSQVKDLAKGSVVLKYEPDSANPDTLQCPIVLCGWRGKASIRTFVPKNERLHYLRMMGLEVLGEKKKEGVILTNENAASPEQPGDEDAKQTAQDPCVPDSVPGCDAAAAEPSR", "conditions": "14C-SAM incorporation, 37 C 1 h"}, "[2]": {"target": "Misu (full length, mouse) (Mus musculus) (UniProt Q1HFZ0)", "conditions": "14C-SAM incorporation, 37 C 1 h, DNase treated; about two fold without DNase"}},
  "note": "Read-outs that look alike come from different tables or passages of the source.",
  "data": [
    {"substance": "E. coli rRNA", "values": [
      {"measurement": "activity (fold over control)", "setting": "Dnmt1 (Mus musculus)", "value": 2},
      {"measurement": "activity (fold over control)", "setting": "[1]", "value": 2}
    ]},
    {"substance": "E. coli tRNA", "values": [
      {"measurement": "activity (fold over control)", "setting": "Dnmt1 (Mus musculus)", "value": 2},
      {"measurement": "activity (fold over control)", "setting": "[2]", "value": 3}
    ]},
    {"substance": "hemi-methylated double stranded oligonucleotide", "values": [
      {"measurement": "activity (fold over control)", "setting": "[1]; 5mC on one strand (hemi-methylated), retained after RNase", "value": 2}
    ]}
  ]
}
